Experimental data published in patent US20220281981A1 (INVECTYS, published 2022).

Key:
[1] = molecular target: T1, HLA-G1/5 β2M-free (human, UniProt P17693 25-298, limits assumed); test: flow cytometry, titration of 15E7, readout % of binding
T1 construct: Printed as one antigen, 'HLA-G1/5 β2M-free'; also called HLA-G1/β2M free; HLA-G5/β2M free

[2] = molecular target: HLA-G6 (human, UniProt P17693-6 25-227, limits assumed); test: as above
[3] = molecular target: T2, HLA-G1 β2M-associated, on lentivirus-transduced cells (Jurkat HLA-G1Lv, K562 HLA-G1Lv) (human, UniProt P17693 25-338; P61769 21-119); test: flow cytometry on Jurkat HLA-G1Lv and K562 HLA-G1Lv cells, GAM-PE detection
T2 construct: whole, on cells; also called HLA-G1 B2M-associated
Procedure: Flow cytometry analyses were performed using LSR FORTESSA (Beckton Dickinson, Le Pont-de-Claix, France); data were analyzed with FlowJo X software (Tree star, Ashland, USA).

B1: 15E7 monoclonal antibody (antibody, V domains shown)
VH: QVQLQQPGAELVRPGSSVKLSCKASGYTFTDYWMDWVKQRPGQGLEWIGTIYPSDSSTHYNQEFKGKATMTVDKSSSTAYMHLSSLTSEDSAVYYCAREGLAGVFYFDYWGQGTTLTVSS
VL: DVLMTQIPFSLPVSLGDQASISCRSSQSIVHRSGNTYLEWYLQKPGQSPKLLIYKVSNRFSGVPDRFSGSGSGTDFTLKISRVEAEDLGVYYCFQGSHLPPTFGGGTTLEIK
notes: Tested as a monoclonal antibody in flow cytometry and detected with goat anti-mouse IgG; also called 15E7 antibody; anti HLA-G-α3 β2M-free 15E7 antibody
EC50 (read off the curve) [1]: ~0.02 µg/mL
EC50 (read off the curve) [2]: ~0.1 µg/mL
binding result [3]: no binding
